According to publication doi:10.1101/2022.09.03.506465 (bioRxiv, 2022):

T1: TSEN54, subunit of full-length, catalytically inactive human TSEN (human, UniProt Q7Z6J9 1-526)
T1 sequence (looked up): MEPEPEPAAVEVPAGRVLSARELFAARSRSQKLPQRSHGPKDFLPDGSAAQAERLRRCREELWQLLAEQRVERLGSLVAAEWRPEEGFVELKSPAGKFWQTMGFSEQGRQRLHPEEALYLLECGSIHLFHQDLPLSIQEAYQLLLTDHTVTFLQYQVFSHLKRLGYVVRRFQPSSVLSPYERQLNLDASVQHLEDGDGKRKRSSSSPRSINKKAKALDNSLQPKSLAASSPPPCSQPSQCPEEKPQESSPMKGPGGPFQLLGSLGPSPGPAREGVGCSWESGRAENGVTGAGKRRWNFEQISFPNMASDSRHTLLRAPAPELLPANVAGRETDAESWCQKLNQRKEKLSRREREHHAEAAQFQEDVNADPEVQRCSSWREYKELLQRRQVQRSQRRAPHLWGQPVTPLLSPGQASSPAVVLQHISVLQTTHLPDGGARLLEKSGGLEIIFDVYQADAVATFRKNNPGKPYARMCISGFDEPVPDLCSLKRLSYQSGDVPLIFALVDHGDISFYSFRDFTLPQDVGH

B1: TSEN34^H255F, subunit of full-length, catalytically inactive human TSEN (natural protein, UniProt Q9BSV6 1-310, looked up)
chain: MLVVEVANGRSLVWGAEAVQALRERLGVGGRTVGALPRGPRQNSRLGLPLLLMPEEARLLAEIGAVTLVSAPRPDSRHHSLALTSFKRQQEESFQEQSALAAEARETRRQELLEKITEGQAAKKQKLEQASGASSSQEAGSSQAAKEDETSDGQASGEQEEAGPSSSQAGPSNGVAPLPRSALLVQLATARPRPVKARPLDWRVQSKDWPHAGRPAHELRYSIYRDLWERGFFLSAAGKFGGDFLVYPGDPLRFFAHYIAQCWAPEDTIPLQDLVAAGRLGTSVRKTLLLCSPQPDGKVVYTSLQWASLQ

Legend:
[1] = molecular target: T1, TSEN54, subunit of full-length, …; assay: cryo-EM structure
[2] = molecular target: B1; assay: cryo-EM structure

| binding result [1] | binding result [2] | Binder |
| --- | --- | --- |
| binds | – | B1 |
| binds | – | TSEN2^H377F, subunit of full-length, catalytically inactive human TSEN (natural protein, UniProt Q8NCE0 1-465, looked up) MAEAVFHAPKRKRRVYETYESPLPIPFGQDHGPLKEFKIFRAEMINNNVIVRNAEDIEQLYGKGYFGKGILSRSRPSFTISDPKLVAKWKDMKTNMPIITSKRYQHSVEWAAELMRRQGQDESTVRRILKDYTKPLEHPPVKRNEEAQVHDKLNSGMVSNMEGTAGGERPSVVNGDSGKSGGVGDPREPLGCLQEGSGCHPTTESFEKSVREDASPLPHVCCCKQDALILQRGLHHEDGSQHIGLLHPGDRGPDHEYVLVEEAECAMSEREAAPNEELVQRNRLICRRNPYRIFEYLQLSLEEAFFLVYALGCLSIYYEKEPLTIVKLWKAFTVVQPTFRTTYMAYHYFRSKGWVPKVGLKYGTDLLLYRKGPPFYFASYSVIIELVDDHFEGSLRRPLSWKSLAALSRVSVNVSKELMLCYLIKPSTMTDKEMESPECMKRIKVQEVILSRWVSSRERSDQDDL |
| – | binds | TSEN15, subunit of full-length, catalytically inactive human TSEN (natural protein, UniProt Q8WW01 1-171, looked up) MEERGDSEPTPGCSGLGPGGVRGFGDGGGAPSWAPEDAWMGTHPKYLEMMELDIGDATQVYVAFLVYLDLMESKSWHEVNCVGLPELQLICLVGTEIEGEGLQTVVPTPITASLSHNRIREILKASRKLQGDPDLPMSFTLAIVESDSTIVYYKLTDGFMLPDPQNISLRR |
